Assay results published in US20200282010A1, “IMMUNOGENIC COMPOSITIONS AND USES THEREFOR” (Epiaxis Therapeutics Pty Ltd, priority 2017, published 2020).

Assays:
[1] = biological target: T1, PKC-β2 (Homo sapiens, UniProt P05771); assay: Nuclear localization of PKC-β2 (Fn/c, immunofluorescence), specificity; type: cell-based; conditions: MCF7 breast cancer cell line; FIG. 1D
T1 construct: endogenous in cells; host or cells: MCF7
Excerpt: (§1) FIG. 1 is a graphical, schematic and photographic representation showing that PKC-θ can be targeted for therapeutic intervention. A) Depicts the strength of binding of recombinant purified His6-PKC-θ to increasing concentrations of different subunits and subunit combinations (α2, α2β1, and β1) of the importin α/β heterodimer nuclear transport receptor using an AlphaScreen® binding assay as described in Wagstaff et al. (2011. Journal of Biomolecular Screening 16 (2):192-200). B-C) Depicts protein structure of PKC-θ indicating binding locations for the PKC-θ peptide inhibitor, PKCθi (RKEIDPPFRPKVK), including the nuclear localization sequence (NLS) of PKC-θ. D) The specificity of PKCθi was examined on cells treated with this peptide inhibitor. Cells were screened with primary antibodies to PKC-θ (T538p), PKC-β2, PKC-β1, PKC-α, PKC-ε and PKC-γ. The nuclear to cytoplasmic fluorescence ratio (Fn/c) using the equation: Fn/c=(Fn−Fb)/(Fc−Fb), where Fn is nuclear fluorescence, Fc is cytoplasmic fluorescence, and Fb is background fluorescence was used to determine the impact on nuclear translocation/localization. […] EC^50 of inhibitors calculated using GraphPad PRISM software. F) The PKC-θ kinase activity was measured using the PKC kinase activity kit from ENZO life sciences and recombinant PKC-θ; C27 is an inhibitor of PKC-θ kinase activity, which is disclosed in Jimenez et al. (2013. […]

[2] = biological target: T2, PKC-ε (Homo sapiens, UniProt Q02156); assay: Nuclear localization of PKC-ε (Fn/c, immunofluorescence), specificity; type: cell-based; conditions: MCF7 breast cancer cell line; FIG. 1D
T2 construct: endogenous in cells; host or cells: MCF7
T2 sequence (Q02156 1-737): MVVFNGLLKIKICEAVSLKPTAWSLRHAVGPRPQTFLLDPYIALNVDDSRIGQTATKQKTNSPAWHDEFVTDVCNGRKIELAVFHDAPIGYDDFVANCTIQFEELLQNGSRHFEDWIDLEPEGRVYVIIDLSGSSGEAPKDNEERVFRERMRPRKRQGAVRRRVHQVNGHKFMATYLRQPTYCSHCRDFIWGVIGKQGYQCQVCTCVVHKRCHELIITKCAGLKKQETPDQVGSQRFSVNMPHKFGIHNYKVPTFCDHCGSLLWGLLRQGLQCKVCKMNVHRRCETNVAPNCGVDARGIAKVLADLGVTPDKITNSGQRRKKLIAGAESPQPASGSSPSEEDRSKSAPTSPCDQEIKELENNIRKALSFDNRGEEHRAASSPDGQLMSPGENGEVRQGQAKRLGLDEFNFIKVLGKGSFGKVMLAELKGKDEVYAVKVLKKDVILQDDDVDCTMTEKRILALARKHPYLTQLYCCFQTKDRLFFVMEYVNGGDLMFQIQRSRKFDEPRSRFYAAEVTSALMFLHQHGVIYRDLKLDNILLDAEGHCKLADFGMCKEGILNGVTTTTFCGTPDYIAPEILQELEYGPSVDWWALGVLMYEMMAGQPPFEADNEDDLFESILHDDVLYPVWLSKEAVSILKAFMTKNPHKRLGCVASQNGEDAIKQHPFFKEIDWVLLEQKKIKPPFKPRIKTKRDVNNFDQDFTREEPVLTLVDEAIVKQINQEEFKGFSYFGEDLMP
Excerpt: as §1

T1 sequence (P05771 1-673 isoform P05771-2): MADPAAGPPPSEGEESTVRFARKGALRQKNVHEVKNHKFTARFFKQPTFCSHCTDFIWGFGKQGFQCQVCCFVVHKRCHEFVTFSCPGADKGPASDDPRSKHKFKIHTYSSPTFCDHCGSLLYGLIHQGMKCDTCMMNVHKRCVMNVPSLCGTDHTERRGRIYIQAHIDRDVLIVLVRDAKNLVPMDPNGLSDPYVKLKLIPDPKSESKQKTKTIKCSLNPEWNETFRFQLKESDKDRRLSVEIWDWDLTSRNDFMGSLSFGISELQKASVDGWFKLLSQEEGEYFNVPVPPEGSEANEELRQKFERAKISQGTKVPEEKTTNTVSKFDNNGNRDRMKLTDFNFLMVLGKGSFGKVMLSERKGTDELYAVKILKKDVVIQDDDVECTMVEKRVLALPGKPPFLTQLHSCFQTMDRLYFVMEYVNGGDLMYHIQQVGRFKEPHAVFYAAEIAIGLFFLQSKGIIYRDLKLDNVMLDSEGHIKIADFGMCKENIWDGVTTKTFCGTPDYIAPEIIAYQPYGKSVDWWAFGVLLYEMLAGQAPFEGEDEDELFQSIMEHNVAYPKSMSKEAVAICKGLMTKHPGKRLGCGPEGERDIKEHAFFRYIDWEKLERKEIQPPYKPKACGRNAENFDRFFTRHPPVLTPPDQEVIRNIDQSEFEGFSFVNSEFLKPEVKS

- nuclear localization of PKC-β2 [1]: no effect
- nuclear localization of PKC-ε [2]: no effect
Sequence: RKEIDPPFRPKVK [PKCθi]
